# In the DeepSol protein solubility set:
# Assay: soluble on expression in E. coli; label from the status in PepcDB or PDB records
row,Sequence,soluble on expression in E. coli
1,MIDCAIIGGGPAGLSAGLYATRGGVKNAVLFEKGMPGGQITGSSEIENYPGVKEVVSGLDFMQPWQEQCFRFGLKHEMTAVQRVSKKDSHFVILAEDGKTFEAKSVIIATGGSPKRTGIKGESEYWGKGVSTCATCDGFFYKNKEVAVLGGGDTAVEEAIYLANICKKVYLIHRRDGFRCAPITLEHAKNNDKIEFLTPYVVEEIKGDASGVSSLSIKNTATNEKRELVVPGFFIFVGYDVNNAVLKQEDNSMLCKCDEYGSIVVDFSMKTNVQGLFAAGDIRIFAPKQVVCAASDGATAALSVISYLEHH,soluble
2,MIDEPTGLYNRLRLQEDVSLRLQRDGALTVIAADLLPLALLNTIIRTLGYPFSNDLMLEARDRIRAELPDFTLYKISPTRFGLLLPRQQQEETESVCLRLLRAFESPVVCRGIPIKANVGLGVLPLADDTLDGDQDWLRLVVSAADDARDRGVGWARYNPPLDQAQQRLEHHHHHH,soluble
3,MIDFACKEFKVEDVIKCALNLTKADLNVMKSFLNEPDRWIDTDALSKSLKLDVSTVQRSVKKLHEKEILQRSQQNLDGGGYVYIYKIYSKNQIRNIIQKIVQSWADRLGQELKEWENGGE,not soluble
4,MIDPREIAISSRLEKVRNVIPVVSGKGGVGKSLISTTLALLLREKGYKVGLLDLDFHGASDHVILGFEPKEFPEEDKGVVPPEVNGVKFMTIVYYTENKPTPLRGKEVSDALIELLTITRWDELDYLVIDMPPGLGDPFLDVLRFLKRGKFIVVATPSKLALNVVEKLIQLLKEENREILGIIENMKLDEEEDVKNLAKRHGINYLLGVPFYRDLEEKIGKVEELLKTPFADKLREVIKVLV,soluble
5,MIDTFERTGPLMEASSYPAWAQQLINDCSPAKARVVEHELYQQMRDAKLSPQIMRQYLIGGWPVVEQFAVYMAKNLTKTRFGRHPGEDMARRWLMRNIRVELNHADYWVNWCAAHDVTLEDLHDQRVAPELHALSHWCWQTSSSDSLAVAMAATNYAIEGATGEWSAVVCSTGVYAEAFAEETRKKSMKWLKMHAQYDDAHPWEALEIICTLVGNKPSLQLQAELRQAVTKSYDYMYLFLERCIQLDKVKSPRGRVAALEM,soluble
6,MIDTNLLRVTVCDEGELEKSTTHFIGSRKIEPEQWITWASECKYLPESDAVALCATLIDRLSLEANVVPVSSPVTICGDIHGQFYDLLELFKTGGTVPNTKYVFMGDYVDRGHYSLETVTLLFCLLLKYPNQITLLRGNHESRRISNVYGFYDECQNKYGHGNVHKWFCKVFDVLPIGALIDESVLCVHGGLSPDIRTIDSLMLLDRAQEVPNKGPLCDIMWSDPDDDVEDWVISQRGAGFVFGAKVTEEFLMNNDLSLLCRSHQLVDEGFKYMFNEKLATVWSAPNYCYRCGNAAAVFEIDGNNRSTKYFNAVPDGSREKPDRVVAPYFL,not soluble
7,MIEMKYILARATDEEIQKRGECGGAVTAIFKYMLDREIVDGVLTLERGDDIYDGIPVLLEDSDEIVSTCGSLHCAPTMFGDLISRYLNDMRLAVAVKPCDAMAIKELEKRHQIDPQRVYMIGLNCGGTLSPVSAREMIETFYEIDPDDVVREEIDKGKFIVELKDGSHKEISIDYLEEEGFGRRENCQRCELMVPRNADIACGNWGAEEGWTFIEVNTDRGEEIIEGARREGYLEVKEPPMKMIEIREKIENAMIKMARKFQDKYLEDEYPSLDDWDEYWKRCINCFACRDLCPICFCRECELEKDYLLESDEKAPDPLTFQGVRLSHMGFSCINCGQCEDVCPMDIPLARIYHRIQRKYRDRTGFTAGVSEELPPMYSGEKDLEHHHHHH,soluble
8,MIEMTPDSSVYKALLESTKAIPWKINWQTMAFEYIGPQIEALLGWPQGSWKSVEDWATRMHPEDQEWVVNFCVKQSECGVDHEADYRALHRDGHYVWIRDVVHVVRDDSGEVEALIGFMFDISERKKTLEHHHHHH,soluble
9,MIEPIWIDEQVALAIHERLISLHSGASGVRDKELLKSALARPLNLLAYDQQADVIHLAAAYTAGILQNHPFVDRNKRTGFVVGVLFLELNGYRFTAAEEDSAQAVIALAAGSLDEARFKLFLADNSIPV,not soluble
10,MIETITQSQETAILESFLELVKSPYGNFASIGKLSHVLNDPDTLQKVVAVLSLTPQGKQAFEDRPMLGKIDLEQLHQLPNYTLGYMYADHMIRNQLTPPPVNENVNHPFMFLAAHLGETHDIWHVVTGCDTDKPGEVKLEAFYTAQLIPDRLFLALLAKNLLKTAMYEVELCEQILDGLTQGWMMGKRAKPLFGIEWNKLWETPLEELQTSLNIVPILEHHHHHH,soluble
11,MIFAYNKEQVGDVLLVILEDTKDIKRSVERKGKVARVTADETGKTLAWNIFEASSLIDIEGNGQVFLSDQDVAILNEELAKEGFEERLENTQGPVFVVGQIDEMVPHPDSDHLNICQVNIGDKKVQIVAGAPNASPGLKTIVALPGAMMPSGALIFPGKLRGEDSYGMMCSPRELALPNAPQKRGIIELDDSAVVGEAFDPAKHWKRLEHHHHHH,soluble
12,MIGAQVDMHFTKGYPSVDLSDPWNKNVLLEVVRMAIPLMKHPNYYRINGKPAIFIWNEAIFYNRAEAYREIKEMVKRDLGVEPYIIADVLPRIMADRKVIPGTPEGEWYIRNLLLRKNDGGDKFIDAYTSWIGFYSVQGETALTPREIEMYSKLYREHVEAWSSYTNGRNKCFIPTVSPGFDRTFDKSFNQQFPIPRDPKRFAEMLKIALDSLGNCKEIRIDTWNDFYEGTFIEPSVSDGFTYLEVLEEFIKELKENLEHHHHHH,not soluble
13,MIGDGKLLASAAWDAQSLNELKAKAGQDPAANIRPVARQVEGMFVQMMLKSMREALPKDGLFSSDQTRLYTSMYDQQIAQQMTAGKGLGLADMMVKQMTSGQTMPADDAPQVPLKFSLETVNSYQNQALTQLVRKAIPKTPDSSDAPLSGDSKDFLARLSLPARLASEQSGVPHHLILAQAALESGWGQRQILRENGEPSYNVFGVKATASWKGPVTEITTTEYENGEAKKVKAKFRVYSSYLEALSDYVALLTRNPRYAAVTTAATAEQGAVALQNAGYATDPNYARKLTSMIQQLKAMSEKVSKTYSANLDNLF,not soluble
14,MIGIVAAFEKVKIPEMGKSFGTGWLPPLPSLKDYTEESAQIPEMAEKLGIPTSRKETKTLELPVSIDFRNWCSPIEDQMDLGSCTAHAGVGVVEYFERRAFGKHIDGSRFFVYKTTRNLMGVKGDTGAWLRNTMGALALCGVPPEKYFPYTSRKTPGPDGEPTFDDEPSSFVYSLADNFEALNYFCHDPQGMNLPPEDVILSVKKYLAAGIPSMFGFYGFPSFKDTDVKGGIPFPGPDERSIWGHAVVAVGYDDNMKIRNTLSNKETTGAFLIRNSWGTAWGDKGYGWLPYEYALNKLEHHHHHH,not soluble
15,MIGKLKKGSSFGGCIRYVTGKDEAKIIASDGVLLGTNAEITQSFELQRQLNPRIKKPVGHIALSFKPEDKPRLTDEFMTKIAIEYMQMMGITKTQFIIIRHHNADNPHCHIVYNRINNESKLISDRNDYRRNEQVTKALKSKYGLTYGTDKSNTNTRKLRNAERAKYEIHNAVKDALKMADSWEKLRSELAKRGVHLEFVYKDKAQTKVQGIRFCKDGYSFKGTQICREYSFGKLNAKFEGTENHVSTRANSAQQYEQGCRKNEQVPFMSENCQDPWDGISSIGLFASANAQTFESFPEDESAKKKKKKRRRGFSL,not soluble
16,MIGLLFLFAACQEKVTSPAKVDTLPSIFPDYVGVTIPSTIAPLNFRVTDDGVEAVDVVIAGTKGKPVRLNGRSVDIPAKQWHELLESNKGDSIEVKVSVRQGKKWKEYRPFPIYVSPFPIDYGLVYRLLAPGYEVYSKMGIYERELSTFRQTPLFENTQVTAACINCHAFNRTEPTPSSVHVRGGHGATVIDTGDRLEFLDTKADGQLSACVYPYWHPSGEYIAYSVNKTNQAFHLGGKKPIEVFDQASDVVVYHPRSHRILTTPLLSTASFETFPAFSPDGRTLYFCSAEQKEMPVRYKDVKYSLCSIAFHPEDGTFGDRIDTLISARTLDKSISFPKPSFDGKYLMFTLSDYGNFSIWHKEADLWLLDLKTGTYRNLEEVNSDDTESYHNWSSNSHWFVFSSRRGDGLYTRLYISSVDGQGRIGKPFLLPQQDPYTFYDQLIYSYNVPEFVSAPVQWDKREMAKGLMSKERVKVKLEHHHHHH,not soluble
17,MIGMAEVKLINIWKRFGDVTAVKDLSLEIKDGEFLVLLGPSGCGKTTTLRMIAGLEEPTRGQIYIEDNLVADPEKGVFVPPKERDVAMVFQSYALYPHMTVYDNIAFPLKLRKVPKQEIDKRVREVAEMLGLTELLNRKPRELSGGQRQRVALGRAIIRRPKVFLMDEPLSNLDAKLRVKMRAELKKLQRQLGVTTIYVTHDQVEAMTMGDRIAVMNKGELQQVGTPDEVYYKPVNTFVAGFIGSPPMNFLDATITDDGFLDFGEFKLKLLQDQFEVLEEENMVGKEVIFGIRPEDVHDASFTHIDVPEENTVKATVDIIENLGGEKIVHLRRGNISFTAKFPKESKVREGDEVSVVFDMKKIHIFRKDTEKAIF,soluble
18,MIGRERMTVASQRLIAERTYELTLSGRLVQEMRQPGQFVHVKVAASADPLLRRPLSLCHIDHKQGQCTIIYRQEGKGTALLAQKQPGDTVDVLGPLGNGFPLEAAPADSRALLVGGGIGVPPLYELAKQLTKRGVKVVSVLGFQTKAAVFYEEEFAAFGETHVATDDGSHGTAGRVTDVIEARSLEFDVLYACGPKPMLRALAERFPNRPVYLSLEERMGCGVGACFACVCHVPGSETAYKKVCSDGPVFRAGEVVL,soluble
19,MIHPARPLRGQAALEARDPNARLEEAVGLAVALDLNVVEALVAPLRVVTPATLFGKGKVEEFAAICEVEHIDVAVFDDQLTPIQQRNLEKALKVKVVDRTGLILEIFARRARTREGRLQVELARLDYERSRLVRTWTHLERQRGGTGSTGGPGETQIEIDRRLIAGTILKLKKELEEVRRTRTLHRSARKKVPYPTVALVGYTNAGKSTLFNRLTEAEVLAKDMLFATLDPTLRTVKLPDGRPAIMSDTVGFISDLPHELVEAFRATLEEVQEADVVLHVRDVANPDSEAQARDVETVLAELGVTLDEGKTVVEVWNKVDLLSEDDREIVEGQARRNDASAVSAVTGEGCEALLRRIAGLIDDSPPVEVSLAAQDGQALAWIYRNGRVLSRYDGPGGEVTLVARLDAQALGRFERQFPGAQVSAAVDLEHHHHHH,soluble
20,MIHTYEEAIGWIHSRLKFGIKPGLERMRWMLEELGNPERHIKCVHLAGTNGKGSTLTYMRYMLEDAKYKVGTFTSPYIETFNERISVNGTPIADEEITELVKMVKPVVEKLDETDLGEATEFEIITVMAICYFGKVNFCDVVLFETGLGGRFDSTNVIHPVLTIITNIGHDHMHILGNTLGEIAYEKAGIIKSGVPVITGVQDEEALQVIQKVAKENRANLYEMGNHFTALHKQSSENGEQFDFTCPFASFEDVRIAMKGSHQVGNAALALMAVMYVKTYLSFLIEEEEIRTGLQEAYWVGRFEKLQSNPDIIIDGAHNPEGIESLVKTVESHYKDKNVIVLFTALGDKQLHNMVGQLETIADEIIFTTFAFDRAISAGELASYAKKESKLVFENWKEAIDTKVEMIGENDVFIITGSLYFISEVRKYIREKN,not soluble
21,MIIDDIINKIKSSNKIAISFHISPDGDSIGSSLGLLNGLRSIGKETYILSKEVVPESFEFLNFAREIDGNHFEVEDNTDLLITLDCGNIERLNFDTSDMISEDKKYTVINIDHHVTNDSFGDLNYINTKAASVGEIVYDLLSKMNISIDRTIAACLYTSILTDTGSFRFSNTTLNTHVVAGNLISTGLDFSEIHRKIFDNKKFEALKLQALVLNDMYLTFNNKLCVMKVTHDFIEKANAEDVDTGDLVSLGLKVNTAEVCMLLKEKDDCIKVSLRSKSYVDVRKIAEKFGGGGHIRAAGLSINSNILDAEKMILSEIQGELLEHHHHHH,not soluble
